# Target: the molecule itself
# Test: SEC; size-exclusion chromatography of purified PSAT in solution (Figure S7); conditions not shown
protein,measurement,value
"human phosphoserine aminotransferase (PSAT-β) (enzyme, pyridoxal 5'-phosphate covalently bound to Lys200 (internal aldimine); pyridoxamine phosphate in place of PLP in some chains, human phosphoserine aminotransferase, PSAT1 (PSAT-β), wild type, EC 2.6.1.52; gene coding for human PSAT-β cloned in a modified pET28b; electron density continuous from residue 6 to 370; also called PSAT1; human PSAT; source: E. coli BL21(DE3) tuner, purified (IMAC Talon; Superdex 75 before crystallization)) MDAPRQVVNFGPGPAKLPHSVLLEIQKELLDYKGVGISVLEMSHRSSDFAKIINNTENLVRELLAVPDNYKVIFLQGGGCGQFSAVPLNLIGLKAGRCADYVVTGAWSAKAAEEAKKFGTINIVHPKLGSYTKIPDPSTWNLNPDASYVYYCANETVHGVEFDFIPDVKGAVLVCDMSSNFLSKPVDVSKFGVIFAGAQKNVGSAGVTVVIVRDDLLGFALRECPSVLEYKVQAGNSSLYNTPPCFSIYVMGLVLEWIKNNGGAAAMEKLSSIKSQTIYEIIDNSQGFYVCPVEPQNRSKMNIPFRIGNAKGDDALEKRFLDKALELNMLSLKGHRSVGGIRASLYNAVTIEDVQKLAAFMKKFLEMHQL",stoichiometry N,2

# From PMC10031235 (Protein Science : A Publication of the Protein Society, 2023)
